The MegaScale stability set (Tsuboyama et al. 2023)

B1: EHEE_rd2_0196 (parent)
chain: TETRTFDSEEEAKKAQKEAEKQGRTVTITRRDDRWEVRFD

Variants of: B1
Assay: folding stability dG (cDNA display proteolysis); higher = more stable
Details: PBS, room temperature

Folding stability dG [kcal/mol] of substitutions, site by site:
T25: M 2.67; R 3.32; N 2.69; W 2.22; D 1.97; Y 2.33; F 2.43; A 2.83; L 2.77; V 3.09; Q 2.81; G 2.32; E 2.28; P 2.21; I 2.99; S 2.9; K 3.13; H 3.16
F39: C 2.14; P 2.06; A 2.34; E 2.52; S 2.46; Q 2.02; L 2.74; Y 3.15; I 3.35; D 2.51; H 1.93; T 2.48; K 1.29; N 1.81; V 2.93; R 1.35; W 2.94; M 2.96; G 1.87
R24: F 3.59; E 2; D 2.29; W 3.24; P 0.456; I 3.23; T 2.22; V 2.85; S 2.19; M 3.32; L 3.23; K 3.01; N 2.13; Q 2.84; Y 3.62; H 3; A 2.56; G 1.93
W35: F 2.18; I 1.2; P 0.441; N 0.396; G 0.36; Y 2.08; E 0.481; Q 0.348; K 0.058; A 0.417; D 0.578; H 0.529; T 0.4; R 0.21; V 0.758; S 0.473; M 0.562; L 0.862
D32: K 3.01; Q 2.97; E 3.07; W 1.84; V 2.29; G 3.98; Y 2.19; L 2.63; P 1.75; T 2.06; S 2.45; R 2.48; H 2.83; A 2.92; F 2.55; M 2.61; I 2.11; N 3.29
I28: T 1.18; Q 0.41; L 2.06; F 0.342; N 0.423; H -0.123; V 2.83; C 2.46; D -0.146; Y 0.332; R 1.31; S 0.645; M 1.77; E 0.07; A 0.842; G 0.232; P 0.277; K 0.714
D33: M 1.95; N 3.08; E 2.7; C 2.47; G 3.39; S 2.36; F 1.55; L 1.71; W 1.34; P 1.21; T 2.09; Q 2.46; A 1.96; R 1.83; Y 1.48; K 2.17; H 2.5; V 1.4; I 1.37
T27: F 1.94; W 1.8; P 0.682; H 2.59; K 2.45; Q 2.52; C 3.03; G 1.36; E 2.03; M 2; L 1.89; S 2.76; N 2.11; I 2.94; V 2.88; D 1.37; Y 1.95; A 2.16; R 2.56
Q22: S 2.92; V 2.81; P 1.55; N 3.02; R 2.84; Y 2.73; W 2.8; M 3.24; T 2.82
T29: L 2.53; A 2.36; H 2.75; P 0.016; F 2.3; N 2.45; V 3.16; I 3.19; E 2.48; G 2.02; W 1.8; D 1.71; M 2.48; K 2.44; Y 2.21; S 2.73; Q 2.59; R 2.76
R31: Q 2.55; S 2.29; L 2.9; W 2.18; Y 2.57; G 1.68; I 3.27; M 2.78; D 1.79; A 2.38; N 2.57; V 3.43; K 3.13; F 2.75; H 2.69; P 0.846; E 2; T 2.56
V26: P 1.87; E 0.318; S 3; T 2.76; Q 0.065; F 0.841; D 0.12; A 3.4; G 2.61; L 1.23; I 2.08; R 0.117; N 0.69; K 0.184; Y 0.849; H 0.258; C 3.6; M 1.18; W 0.253
R34: I 3.14; P 0.669; L 3.13; G 3.16; S 2.76; A 2.81; N 2.41; Y 3.18; T 2.7; F 3.14; M 3.14; K 3.51; Q 2.96; E 2.41; W 2.79; H 3.13; D 2.03; V 3.14
G23: K 1.61; E 1.11; A 1.56; L 1.47; S 1.57; F 1.81; Q 1.67; V 0.857; D 1.39; H 2.15; Y 1.75; P 0.683; T 0.908; M 1.57; N 2.01; I 0.786; R 1.63; C 2.46; W 1.64
R30: F 3.33; P 2.06; K 3.11; V 2.5; G 1.71; I 2.46; E 2.02; D 0.983; M 2.8; S 1.94; Q 2.81; N 2.25; H 2.59; T 1.91; W 2.68; A 2.3; L 2.83; Y 2.83
V37: F 1.02; T 1.31; Y 0.443; E 0.37; W -0.006; R -0.375; D 0.415; M 2.17; Q 0.384; S 0.483; L 2.83; N 0.539; I 2.65; K 0.375; G 1.09; P 0.552; H 0.212; A 1.89; C 1.8
D40: L 3.05; S 3.13; H 2.98; G 2.95; M 3.01; P 2.3; Q 2.92; R 2.42; A 2.97; E 3.28; K 2.3; I 3.13; N 2.88; F 2.85
E36: L 2.46; Q 1.95; Y 2.57; T 1.74; R 1.08; A 1.32; G 0.645; F 2.5; N 1.15; V 2.89; M 2.06; W 1.94; D 2.06; H 2.08; K 0.851; I 2.99; S 1.19
R38: I 3.05; G 2.1; P 0.679; W 2.17; M 2.74; A 2.8; L 2.69; N 2.73; H 3.04; S 3; T 3.15; E 2.68; F 2.33; Q 2.85; V 3.02; K 2.96; D 2.18; Y 2.24
